This assay concerns the target 血浆激肽释放酶(plasma kallikrein,PK) (human) (UniProt P03952). Put plainly: cell-based or functional assay.
Chain of UniProt P03952 (P03952 20-638 limits assumed): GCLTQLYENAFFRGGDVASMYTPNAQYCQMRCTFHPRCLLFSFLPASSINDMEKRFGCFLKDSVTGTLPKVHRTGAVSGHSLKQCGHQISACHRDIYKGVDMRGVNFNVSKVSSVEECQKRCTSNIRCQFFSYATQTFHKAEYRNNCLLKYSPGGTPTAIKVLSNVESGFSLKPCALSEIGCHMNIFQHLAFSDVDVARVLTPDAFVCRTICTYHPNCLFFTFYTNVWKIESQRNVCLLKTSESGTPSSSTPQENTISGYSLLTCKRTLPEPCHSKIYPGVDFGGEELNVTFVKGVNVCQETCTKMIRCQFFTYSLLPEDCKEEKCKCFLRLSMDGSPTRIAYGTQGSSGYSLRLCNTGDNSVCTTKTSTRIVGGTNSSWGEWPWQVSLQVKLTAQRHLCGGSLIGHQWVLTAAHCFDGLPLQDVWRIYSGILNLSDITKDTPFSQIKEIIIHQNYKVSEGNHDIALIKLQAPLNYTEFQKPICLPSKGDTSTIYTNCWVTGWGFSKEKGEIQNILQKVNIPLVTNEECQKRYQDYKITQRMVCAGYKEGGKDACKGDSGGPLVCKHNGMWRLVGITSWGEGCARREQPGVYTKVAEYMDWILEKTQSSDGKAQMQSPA

MHL(Lanadelumab) (antibody) yielded an IC50(nM), PK activity in human plasma activated with Factor XIIa (H-Pro-Phe-Arg-AMC) of 1.17 nM and an IC50(nM), PK enzyme activity on H-Pro-Phe-Arg-AMC (fluorescence) of 0.99 nM.

These data come from patent CN114790245A.
